Laboratory results reported in patent publication US20100247589A1.
Where no end group is shown, it is not given here. The star is where a group is joined. Biotin = O=C1N[C@H]2[C@H](CS[C@H]2CCCCC(=O)*)N1

Molecular target: tooth pellicle (thin film derived from salivary glycoproteins, formed in a human mouth) (human)
Experiment: phage ELISA on pellicle-coated bovine enamel, anti-M13-HRP, normalized to internal control

| O.D.450 (normalized) | Binder |
| --- | --- |
| 2.5 | TTYHYKNIYQESYQQRNPAV [DenP3] |

Molecular target: tooth pellicle (thin film derived from salivary glycoproteins, formed in a human mouth) (human)
Experiment: phage ELISA on 30 min pellicle-coated bovine enamel, anti-M13-HRP, normalized to DenP3; no-phage control 0.094

| O.D.450 (normalized) | Binder |
| --- | --- |
| 0.703 | GINKGQRPPWESWHEN [DenP114] |
| 1.15 | THGNKHQSWTYPSEINHKNY [DenP108] |
| 0.47 | QFNQTSHSFMHGTSGYVPGK [DenP105] |
| 1.05 | HDHLSWWGQFDRQNLL [DenP116] |
| 1.05 | DGYKLQTSLDWQMWNP [DenP111] |
| 0.433 | MPGHQESIKVQNWNRV [DenP117] |
| 1 | TTYHYKNIYQESYQQRNPAV [DenP3] |
| 0.501 | GYGQYVSQQTWAHSNK [DenP115] |
| 0.641 | NLHSPWPSHAAHHWST [DenP118] |
| 0.879 | GVHQYSRPTVPSYLWTSGQH [DenP103] |
| 0.467 | AIEYQHSATTPWTMRTRLPP [DenP101] |
| 0.52 | EFYPFAEVPPEKSGIGRQVF [DenP102] |
| 1.35 | GGMGALESYRQWNHLA [DenP113] |
| 1.52 | SFSWHRGDWELGHQSKTMGM [DenP106] |
| 1.05 | NQQMKLVPQHWHRAQP [DenP119] |
| 0.716 | WHEPHQFSGENTDYSSSMGT [DenP109] |
| 0.79 | GYQPHYVDHTIGWQPMIRPN [DenP104] |
| 0.726 | SMWHDITKRYRNPSEMVSAY [DenP107] |
| 0.413 | FPSKWYNHHRHITGHV [DenP112] |

Molecular target: tooth pellicle (thin film derived from salivary glycoproteins, formed in a human mouth) (human)
Experiment: ELISA, 20 uM biotinylated peptide on pellicle-coated bovine enamel, streptavidin-HRP, normalized to DenP03; no-peptide control -0.001

| O.D.450 (normalized) | Binder |
| --- | --- |
| 1 | SSRPTTYHYKNIYQESYQQRNPAVK(Biotin) [DenP3-A] |
| 0.475 | SSRPFDGIGLGTATRHQNRK(Biotin) [DenP12-A] |
| 0.454 | SSRPDLGTFPNRTLKMAAHK(Biotin) [DenP11-A] |
| 0.309 | SSRPGPQHVLMQDTHQGYAFDNK(Biotin) [DenP16-A] |
| 0.46 | SSRPELDHDSRHYMNGLQRKVTK(Biotin) [DenP15-A] |
| 1.14 | SSRPHKNENIMQYNVNDRWHITPAK(Biotin) [DenP32-A] |
| 0.811 | SSRPAPPTYQTASYPHNLPSKRKMK(Biotin) [DenP28-A] |
| 0.712 | SSRPTYQGVPSWPAVIDDAIRRK(Biotin) [DenP19-A] |
| 0.468 | SSRPQVPDYLSPTHQKKAFLEIPTK(Biotin) [DenP29-A] |
| 0.143 | SSRPTTGSSSQADTSASMSIVPAHK(Biotin) [DenP17-A] |
| 0.269 | SSRPSEARARTFNDHTTPMPIIK(Biotin) [DenP14-A] |
| 0.154 | SSRPNGNNHTDIPNRSSYTGGSFAK(Biotin) [DenP1-A] |
| 0.59 | SSRPVNPNWVETQALHQPPGNTK(Biotin) [DenP20-A] |
| 0.85 | SSRPHDPNHLTHQARTIYRNANHTK(Biotin) [DenP23-A] |
| 0.803 | SSRPVEPATKNMREARSSTQMRRIK(Biotin) [DenP4-A] |
| 0.273 | SSRPTMTNHVYNSYTEKHSSTHRSK(Biotin) [DenP2-A] |
| 0.462 | SSRPYLLPKDQTTAPQVTPIVQHKK(Biotin) [DenP5-A] |
| 0.354 | SSRPIYPNESMSTSNVRGPYHPK(Biotin) [DenP22-A] |
| 0.356 | SSRPEFPYYNDNPPNPERHTLRK(Biotin) [DenP7-A] |
| 0.699 | SSRPQAAQVHMMQHSRPTTK(Biotin) [DenP13-A] |

Molecular target: tooth pellicle (thin film derived from salivary glycoproteins, formed in a human mouth) (human)
Experiment: ELISA titration of biotinylated peptide on pellicle-coated bovine enamel, streptavidin-alkaline phosphatase, 4-MUP fluorescence, Scatchard plot

| MB50 | Binder |
| --- | --- |
| 28 µM | SSRPTTYHYKNIYQESYQQRNPAVK(Biotin) [DenP3-A] |
| 25 µM | SSRPHKNENIMQYNVNDRWHITPAK(Biotin) [DenP32-A] |
